Reference: publication PMC7244319

What was measured:
GST-mLysRS = GST-mLysRS (Mus musculus, UniProt Q99MN1 1-595); assay: streptavidin pull-down
GST-LysRS (human) = GST-LysRS (human) (Homo sapiens, UniProt Q15046 1-597); assay: streptavidin pull-down, WB quantification
GST-cGAS (human) = GST-cGAS (human) (Homo sapiens, UniProt Q8N884 1-522); assay: streptavidin pull-down, WB quantification
Chain of GST-cGAS (human) (Q8N884 whole entry): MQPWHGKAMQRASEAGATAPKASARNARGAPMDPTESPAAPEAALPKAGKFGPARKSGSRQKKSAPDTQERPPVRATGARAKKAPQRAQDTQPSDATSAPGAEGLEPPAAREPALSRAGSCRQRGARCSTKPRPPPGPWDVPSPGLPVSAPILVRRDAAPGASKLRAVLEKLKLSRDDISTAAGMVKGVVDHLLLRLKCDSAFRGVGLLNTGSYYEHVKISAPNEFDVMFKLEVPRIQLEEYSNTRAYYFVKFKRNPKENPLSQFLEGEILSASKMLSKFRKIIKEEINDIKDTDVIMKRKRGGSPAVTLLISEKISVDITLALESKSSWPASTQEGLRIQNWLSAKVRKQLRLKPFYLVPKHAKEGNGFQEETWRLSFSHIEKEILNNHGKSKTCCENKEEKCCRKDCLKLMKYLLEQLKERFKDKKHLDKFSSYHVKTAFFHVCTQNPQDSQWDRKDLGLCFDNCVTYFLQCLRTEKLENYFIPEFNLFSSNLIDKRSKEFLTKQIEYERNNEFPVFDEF

Chain of GST-LysRS (human) (Q15046 whole entry): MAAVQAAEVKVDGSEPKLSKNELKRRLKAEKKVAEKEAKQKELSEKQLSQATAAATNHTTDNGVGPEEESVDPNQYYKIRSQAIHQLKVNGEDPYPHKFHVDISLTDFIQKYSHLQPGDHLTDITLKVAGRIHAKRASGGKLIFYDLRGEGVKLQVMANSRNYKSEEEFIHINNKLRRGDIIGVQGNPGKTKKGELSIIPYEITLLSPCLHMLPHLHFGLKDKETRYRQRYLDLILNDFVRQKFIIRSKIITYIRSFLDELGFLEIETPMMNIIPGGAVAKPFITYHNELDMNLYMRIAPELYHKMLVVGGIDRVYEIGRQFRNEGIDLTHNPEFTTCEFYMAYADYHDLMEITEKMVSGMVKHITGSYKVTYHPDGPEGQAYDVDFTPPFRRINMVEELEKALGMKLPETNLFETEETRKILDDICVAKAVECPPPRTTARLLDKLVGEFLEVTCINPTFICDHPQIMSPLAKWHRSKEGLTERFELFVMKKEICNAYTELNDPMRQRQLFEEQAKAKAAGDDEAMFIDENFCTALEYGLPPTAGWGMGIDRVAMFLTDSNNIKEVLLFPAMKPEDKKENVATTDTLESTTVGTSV
Chain of GST-mLysRS (Q99MN1 whole entry): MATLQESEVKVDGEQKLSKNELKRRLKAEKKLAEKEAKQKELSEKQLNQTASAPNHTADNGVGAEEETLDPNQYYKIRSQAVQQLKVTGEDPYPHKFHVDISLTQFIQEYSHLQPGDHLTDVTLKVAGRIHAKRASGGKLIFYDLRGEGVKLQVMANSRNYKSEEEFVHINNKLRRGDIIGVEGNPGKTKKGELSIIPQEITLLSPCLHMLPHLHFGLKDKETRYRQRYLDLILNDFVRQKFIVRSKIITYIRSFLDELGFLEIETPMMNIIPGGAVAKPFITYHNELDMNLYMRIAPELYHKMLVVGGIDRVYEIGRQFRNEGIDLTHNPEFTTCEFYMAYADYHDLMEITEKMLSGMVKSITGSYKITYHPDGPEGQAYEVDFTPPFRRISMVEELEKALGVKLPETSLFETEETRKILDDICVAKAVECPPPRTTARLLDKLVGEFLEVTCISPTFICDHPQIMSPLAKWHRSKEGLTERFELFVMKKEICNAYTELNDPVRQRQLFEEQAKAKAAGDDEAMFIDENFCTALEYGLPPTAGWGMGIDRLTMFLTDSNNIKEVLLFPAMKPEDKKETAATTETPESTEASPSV

B1: BRNA:DNA hybrid (BRNA 2/DNA 9) (DNA:RNA)
RNA: UUUCAAUUCCUUUUAGGAUUAAUCUUGAAGAUAGAGUUAA
DNA: TTAACTCTATCTTCAAGATTAATCCTAAAAGGAATTGAAA
- binding result (GST-mLysRS): binds
- Kd (GST-LysRS (human)): ~11.3 nM
- Kd (GST-cGAS (human)): ~8.05 nM
